In FireProtDB (doi:10.1006/jmbi.1998.1906):

Conditions: Homo sapiens, Thermal, DSC, glycine 0.05 M, reversible: yes, whole UniProt chain shown

B1: Lysozyme C wild type, P61626 (protein)
chain: MKALIVLGLVLLSVTVQGKVFERCELARTLKRLGMDGYRGISLANWMCLAKWESGYNTRATNYNAGDRSTDYGIFQINSRYWCNDGKTPGAVNACHLSCSALLQDNIADAVACAKRVVRDPQGIRAWVAWRNRCQNRDVRQYVQGCGV
Tm (pH 2.53): 45.5 °C | unfolding enthalpy (calorimetric) (pH 2.53): 75.4 kcal/mol | unfolding enthalpy (van 't Hoff) (pH 2.53): 79.8 kcal/mol | Tm (pH 2.7): 49.2 °C | unfolding enthalpy (calorimetric) (pH 2.7): 82.5 kcal/mol | unfolding enthalpy (van 't Hoff) (pH 2.7): 85.4 kcal/mol | Tm (pH 2.81): 52 °C | unfolding enthalpy (calorimetric) (pH 2.81): 85.9 kcal/mol | unfolding enthalpy (van 't Hoff) (pH 2.81): 89.2 kcal/mol | Tm (pH 3.04): 55.4 °C | unfolding enthalpy (calorimetric) (pH 3.04): 91.6 kcal/mol | unfolding enthalpy (van 't Hoff) (pH 3.04): 95 kcal/mol | Tm (pH 3.14): 57.8 °C | unfolding enthalpy (calorimetric) (pH 3.14): 96.4 kcal/mol | unfolding enthalpy (van 't Hoff) (pH 3.14): 97.4 kcal/mol
